Assay: label from the status in PepcDB records
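Note: failed if final PepcDB status was selected cloned or expressed and not failed if soluble or beyond.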

| Sequence | protein production |
| --- | --- |
| MGKVILVTGVSRGIGKSIVDVLFSLDKDTVVYGVARSEAPLKKLKEKYGDRFFYVVGDITEDSVLKQLVNAAVKGHGKIDSLVANAGVLEPVQNVNEIDVNAWKKLYDINFFSIVSLVGIALPELKKTNGNVVFVSSDACNMYFSSWGAYGSSKAALNHFAMTLANEERQVKAIAVAPGIVDTDMQVNIRENVGPSSMSAEQLKMFRGLKENNQLLDSSVPATVYAKLALHGIPDGVNGQYLSYNDPALADFMP | not failed |
| IHNSRWIMTPEVKEDCKMRLFCLPFAGGGALAYRSWCRYMPPEIELCAVQLPGRENRIKDEKFYDINLLIDELVLQILPYLDKPFALYGHSMGGLISFELARRIRKVKGLTPKILFFSGSKAPQLYDHTKDISHLPDELFLKAIKSFNGMPDMFWQDRELIEFKLPTLRADFSVLEGYNYYNEEPLECPISALCGENDKIISKKDMEALALQTKNQFKLRMFDGDHFFINTCRSKVLKSIIEDLN | not failed |
| MRETGSRPSRSGERRLSWLWLAMAASLVFAVFAVRPPSRIDNVLYDVLTRANAHPADDSILIVDIDDRSLARMGAWPWGRDTHARMVDQLTQAGAKTIVYDVLFSQPSRDPAQDRALGEAIARSGRVYLPEFLIDGGEQAPPRVVGSISEIARGAAGVGLAHVRFDDDGVVRRMAPFEANGPSLKPDLMTVVHRATRPPGSPDVTRGNEQTLLISFAGPPSIYRHASFASVLDGEVPRELIAGRTVFVGLTAPGLGPAFPTPVTPDAASMTGVQLQASVLDALRSGRMITPAGPWSRVGFSLTLLWLLMIGFMALPPRANLLLTIGLCLVGLAYSAALFWLGHIWLSPITTVIGLQLVALIWGWGRLGQVNDLIGRELARVRAVVRGRGAKPAAFSGDVVTRQASSLGDAITRMDDLRRFSADALFSLPDATLVANEQGRVIAANAAAQALFKPHQATLNGASLADLINLLDPLGRRFELDWPQATDRHDPIDLHLPDGRAFQLQTVLRRDEHGGPAGWIVRLADISILTAAMRQREQALQLLTHDMRSPQTSILALLATTPDLPKETADRIAAYARRTLALADGFVQLARAEVTPVSLEPLDLADVAVEAIDEVWPQSLQRKIRIEQVGGEAPLMVLGDRSVLARTFVNLLGNALKYSPSGSTITVNLAEQPSPSGPVACIAIADQGPGFSREEAATAFRPFQRFERPGHELASNGVGLGLAFVQAAVARHGGEVSCRSEPGVGAEFTVRLPRHGVVQGG | failed |
| MGYSGKPHHQLDGEIRESTDGKKWVIAGIPSRSPLKQINLSPGVTVTETEEQDQCPTTPTAVSVRIPRVPPCPAAPKKRKPSLKCSYVTVTRDYFSPPDLETVFIQRASY | failed |
| MKNYMKLIFGLGLIALVGYWPAAKTPKRVNSLFLQNVEALAGSEHVTNLGCLGDGSVDCPINHIKVEYVVQGFSLGE | failed |
| MSTPTAADRAKALERKNEGNVFVKEKHFLKAIEKYTEAIDLDSTQSIYFSNRAFAHFKVDNFQSALNDCDEAIKLDPKNIKAYHRRALSCMALLEFKKARKDLNVLLKAKPNDPAATKALLTCDRFIREERFRKAIGGAENEAKISLCQTLNLSSFDANADLANYEGPKLEFEQLYDDKNAFKGAKIKNMSQEFISKMVNDLFLKGKYLPKKYVAAIISHADTLFRQEPSMVELENNSTPDVKISVCGDTHGQFYDVLNLFRKFGKVGPKHTYLFNGDFVDRGSWSCEVALLFYCLKILHPNNFFLNRGNHESDNMNKIYGFEDECKYKYSQRIFNMFAQSFESLPLATLINNDYLVMHGGLPSDPSATLSDFKNIDRFAQPPRDGAFMELLWADPQEANGMGPSQRGLGHAFGPDITDRFLRNNKLRKIFRSHELRMGGVQFEQKGKLMTVFSAPNYCDSQGNLGGVIHVVPGHGILQAGRNDDQNLIIETFEAVEHPDIKPMAYSNGGFGL | not failed |
| MPINTPENISDNTSETSPELLHFNQLNLPPALLTRLDEIGYQQMTPVQSLSLPVILNNTDAVVRADTGSGKTTAFALTLLAKLEAKSFSPQALVLCPTRELAHQVADEVRKLAKSMLNIKILTLCGGEPSRIQTNSLEHGAHVLVGTPGRVLDHLEQRNVDLSMLTTLVLDEADRMLEMGFQDSLNAIVKHIPKTRQTLLFSATYPKNIAALAEQVTTKARNIEAIQEQAKPQIEQLFYAMNNEDSAQLVMNLLGDHQPENCLVFCNTKNEVKDIFNTLRANKFSVLALHGELEQKDRDQAIIQFSNGSARVLIATDVASRGLDIAELDLVISVNMAHDLDTHTHRIGRTGRAGKEGVAITLIAEKDDYKMRLLEDTFAEPIQVKPAPALSNNRPLKANMSTIQVSGGKKDKLRPGDIVGALTKDNVLSADDIGKIKLESTFGFVAVNSRLAKHALGLINNNKIKGKKFRAKVL | failed |
| MDYREVDSTSEFVCRLEHGGDWRAQIEAFADEQGIDAGFFYGLGAVQDAELMFYDQDRTEYDSLTFDEPLEVAACMGNISHFDGERFAHTHAVLSRPDGEAVAGHLNAGTVWAGELYVRGFDTELQREHDEPTDLDLWNILEHHHHHH | failed |
| MSQDGGQGRYAGRALAGGRYQLRDLLGEGGMASVHLAYDSVLDRQVAIKTLHTELGREQAFRERFRREAQAVAKLTHTNIVSVFDTGEDDLDGMTTPYIVMEYVEGRPLGSVLDEDVRQQGAMPADKALKITADVLAALEISHEMGLVHRDIKPGNVMMTKRGVVKVMDFGIARAMQSGVTSMTQTGMVVGTPQYLSPEQALGRGVDARSDLYSVGIMLFQLVTGRLPFDADSPLAIAYAHVQEQPVAPSAVNRALPPAVDALVARALKKNPNERFPSAEAMRDECLRVAASFQAAPPSIVPGAQTSSGAGVGSAVFPPVGQGTPAPTGPVQTPYQPTPSPGPNPYGTPAPAAHSPAYGYPQQAGYQTPAPAPYAQQQAAATPPPYNLTPSAQGSGSGSPGGKSNKPVIIGSIVVAVVAVGGLIGALLMNGGGDEDPEAGGGGSSTASVSASPSKAAGYRGPDKEKTIEKDKCTEPQESYNDPDKIQVPDFTFKYIGSVKECFNAAGWQMKVVEVDENTYGEGSVRDQFPTAGTDVDPENMPEIQLKVSTGNPPSE | failed |
| MSPMRIGLVCIRGSVPAFENFGFLPTDIVGSNGLVNGSRAHRVLDGIIIPGGSIVESGSLSPELAFEIRRMASDGKFVLGICSGFQALAERTDIGRKSPCPVYREGLGLLNVTFHPMISNDRVEATITGESFLTSGMSGERITGFHCHTYGEIRGDAPEIMKSRIVRADYHERPGEILSGVCSDDGNVAGTMVHGCLDENQTLVSNILKFLDADETARERILEANRKLREALRSELGISTGIRVMDRGGTRGTPPAIMIASTGSDSGKTFILTGLAGALRRRGLRVGVIKVGPDVRDIVPALYLIKEPMEEHSSIRIGRLGWMELRDVLESVRGRYDIILIEGVMSILTGLLNDITPYSGAEIALAAGIPLIMVAGCSKGGIESAVVDLDAHISVLEGLGLEVSCGILNRVYDMDIFERASGGRYLAIPRVEMSERGGTPEVEIKLEDFCLKAMETVEEHLDVDTLISFAKKPEFRGYMGPEEIKKVFSPLEHHHHHH | failed |
| ISMIGERTNSNGSKAFREAMLSGDWEKCVDIAKQQTRDGAHMLDLCVDYVGRDGTADMATLAALLATSSTLPIMIDSTEPEVIRTGLEHLGGRSIVNSVNFEDGDGPESRYQRIMKLVKQHGAAVVALTIDEEGQARTAEHKVRIAKRLIDDITGSYGLDIKDIVVDCLTFPISTGQEETRRDGIETIEAIRELKKLYPEIHTTLGLSNISFGLNPAARQVLNSVFLNECIEAGLDSAIAHSSKILPMNRIDDRQREVALDMVYDRRTEDYDPLQEFMQL | failed |
| MMTKAFFNKLPFEVFRRYVRTGKSIPQRSPRTRKSLLVGGTIASAVVLYNFNDTFHDSVKHTALTTKRIAVVTQATTRCFYHYKRALNKSYENKKEREVALNKCHKMCALITLHALRSNGGIYIKLGQHIGAMTYLLPKEWTDTMIPLQDHCPESTYEEIDELFKEDLGTSIEDMFLEFNKTPIGVASLAQVHVAKLKNSDGKGSSVAVKCQHPSLKEFIPLDVMLTRTVFELLDVFFPDYPLTWLGDELQSSIYVELNFTKEAENAEKTRHYFSKFKKQTALKIPKVIESHKRILIAEYVGGKRLDDLEYIDSHGISRSEVSSCLSHIFNNMIFTPNVGIHCDPHGGNLAIRSVKPAKDNGYHNFEIVLFDHGLYRYPSTRTRRLYAKFWLSLLFDKDQTKMKKYAKGFANITDEQFPLLAAAITGRSIDAALNYDISTSRTQEEMDVMANGILEGTLLSDLMSILSRIPRVVLLILKTNDLTRHLDECLQNPLGPERTFLIMTQYCAKTVYDEKVERINSEYARWSIKWMWENLTNWIVYERRINQLYFYDFVLWWKKFIPKTWLSS | failed |
| MVCYNNPMELLMKIIAFSCHLFFIGLSYQLLISVIDWTKFSHYHPENLGRLRLFVFLLATALGYLVSHCMLELLQISQTLFFEFR | failed |
| MLSKNNFNEKLMQMNNQKAHFSIRKLTIGAASVLIGITFMGINGQTVNADEMTGNTQPEAMQVSTDKSTDATTTQQNDSDSSAQKNAAQTVEVPQNSKQDNTGETSQSTTDKKDTQVQKTESSETKADTAQSQVPPAANQTQKSADQNVENTQSPVASNTTQPKTQNDSKYNVADWGGSLNDETHEYTLNKYNGSDKENIYIPNTEDFIKAGKITDIDKVFITKDLIQNITKNGATSIVIDDQGSEDKNKVYAKGDWSNAFAGSTKLKSVDLSHLDTSQVTSMAGAFNGDTGLNDANLSGWNIQNMTNLSSLFYGANNLYNVDMSGWNFINNPNTNSMFSYADYNLKSVNLKNAKNVTDDILRIYARAIKNSNATTADLSDINLSPNVTSLHGLFSNMPDLKNVNLSGLDISHITDMGGMFSGDSNLESLDLSGLDLSKVTNTNNMFDWVGGKIKSVNITNTKSIPRSILDIYLKALSNTGTTTVDLSGINLSPNVTSLHGLFANMPNLGSANLSGLDISHITDMGGMFFNDTSLKSVNLSGLNLEKVKDLSTMFYGANNLENVDFSNTKFAPDANTNVMFAFADTKLQSVNINGTKNITREVLDAVIRAAKNSNATTLDLSGVSFSPSITSFNNLFSNMPNIESIDLTGWDTSHITDMSYMFFNDPKLKIIKGLEDFNTSNVTNMAYMFAAFNNPTTDNYDPKGLESLGHLTKLDLSNWDTSNVTNMLYMFAGQTNLTSLGDLSKWNTSKVTNMAYMFYDLKNIDDGKLDLTGWDTSNVTDMSYMFFNMFLQKDLSFVNDWNTGKVTDMSYMFANDKNLEKLDLSKWDVSSVGLKHTEQNYSLAMMFAGDTSLTTVGDISHWNTKNVHDTRQMFYNTPKLTNIDLSGWNTGKLQIAEGMFNSSGAKQINLDNWDLSNIKRITPAGYVEGKAGVGVLRGVENMFKNLTNPAVISMNKVILPDARNAFEINDFEGNKAIVVIANGQNGEALQDLLKINNQTWTDKSGNNVTGRQNSDYVTYVRADDNSNQIGQRGLNFIFTNLDDLHQYFNQVTNADNVKNDIGELSHDWDAQQDTDNNIVKITLRLSPASSYDPYSENIHAEKDGNILADLMTSKYQLHIVAPTNTTETKKPTRTIIIENPDGTTSTKEQTVEFKREVTKHVDGTEEATSWTPTSGEWTKFDVPQIAGYDSYVDGTQSKSVASEPVNKDTENVTVVITYKSNAVNPEPIIPDPVKPEVDPDKKDPQEPKTDPVTPTPDEPENPKPEKKPSNPDKRKDDNSKVVKPHGENKAAKKNHSSVEHKKTGTHTIKLSHRVAPKGTQATNGSKKSTSTVNKAADNNKNTLPQTGEKKSNAGLIGLALIALASLGLIDRKRRD | failed |
| MKLTLKNLSMAIMMSTIVMGSSAMAADSNEKIVIAHRGASGYLPEHTLPAKAMAYAQGADYLEQDLVMTKDDNLVVLHDHYLDRVTDVADRFPDRARKDGRYYAIDFTLDEIKSLKFTEGFDIENGKKVQTYPGRFPMGKSDFRVHTFEEEIEFVQGLNHSTGKNIGIYPEIKAPWFHHQEGKDIAAKTLEVLKKYGYTGKDDKVYLQCFDADELKRIKNELEPKMGMELNLVQLIAYTDWNETQQKQPDGSWVNYNYDWMFKPGAMKQVAEYADGIGPDYHMLIEETSQPGNIKLTGMVQDAQQNKLVVHPYTVRSDKLPEYTPDVNQLYDALYNKAGVNGLFTDFPDKAVKFLNKE | not failed |
